The data set “dynamic light scattering” deals with the molecule itself. The experiment in a line: dynamic light scattering.
The data set “SEC” deals with the molecule itself. The experiment in a line: SEC.

From PMC4380140 (Journal of biomolecular screening, 2012) come the findings set out here.

B1: ectodomain ephrinB3 (ed-ephrinB3), amino acids 28-227 of mouse ephrinB3 extracellular domain (domain or fragment, UniProt O35393 28-227, looked up)
chain: LSLEPVYWNSANKRFQAEGGYVLYPQIGDRLDLLCPRARPPGPHSSPSYEFYKLYLVEGAQGRRCEAPPAPNLLLTCDRPDLDLRFTIKFQEYSPNLWGHEFRSHHDYYIIATSDGTREGLESLQGGVCLTRGMKVLLRVGQSPRGGAVPRKPVSEMPMERDRGAAHSAEPGRDTIPGDPSSNATSRGAEGPLPPPSMPA
B1: the stoichiometry N (commonly the number of molecules, sites or subunits per partner or assembly) in the data set “dynamic light scattering” amounted to 104 monomers per particle.

B2: ectodomain ephrinB1 (ed-ephrinB1), amino acids 26-236 of mouse ephrinB1 extracellular domain (domain or fragment, UniProt P52795 26-236, looked up)
chain: TPLAKNLEPVSWSSLNPKFLSGKGLVIYPKIGDKLDIICPRAEAGRPYEYYKLYLVRPEQAAACSTVLDPNVLVTCNKPHQEIRFTIKFQEFSPNYMGLEFKKYHDYYITSTSNGSLEGLENREGGVCRTRTMKIVMKVGQDPNAVTPEQLTTSRPSKESDNTVKTATQAPGRGSQGDSDGKHETVNQEEKSGPGAGGGGSGDSDSFFNSK
In the case of B2, in the data set “SEC”, the binding result is given as “binds”.
